# Experiment: label from the status in PepcDB records
# 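Note: failed if final PepcDB status was selected cloned or expressed and not failed if soluble or beyond.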
row,Sequence,protein production
1,MLQMNLEELRRIQEEMSRSVVLEDLIPLEELEYVVGVDQAFISDEVVSCAVKLTFPELEVVDKAVRVEKVTFPYIPTFLMFREGEPAVNAVKGLVDDRAAIMVDGSGIAHPRRCGLATYIALKLRKPTVGITKKRLFGEMVEVEDGLWRLLDGSETIGYALKSCRRCKPIFISPGSYISPDSALELTRKCLKGYKLPEPIRIADKLTKEVKRELTPTSKLKLEHHHHHH,failed
2,MLQNIPTHVIGGPLGAGKTSLIKRLLAQKPAHERWAVLINEFGQIGLDAALLTTTADGIALGEVAGGCLCCVNGVPFQIGLGRLLRKARPDRLLIEPSGLGHPAQLMAQLREAPWRGVLTVQPGVMVLDAAAMATGQPLPATQQEALAEAGLVVMNKSEQLDEAARQALAEQMKPCALLWTRHADLSLSRLPGFVEGTAVDKHAVDNLTLPNSIGRLPALWADPNVPICLSQTSAEGWSVGWRWHPSQQFDLQRVLHWLEGMAWRRAKVVIHSEGGWYSGNVLEGAPLAWQISEWRQDSRLELIFSAPQDVDTLQAQMAGCLA,failed
3,MLQRLFIFLLIFLILPDIYLYLRFIVHLTAKRWLRILYWLPAFLLSAGLLYLVYFSNNAFAERHTQAIGWFSIFFFLFTAPKLLLSLCTIIGVPFHKWLRWPRTPFICTGLTLAVISIVMIIYGSFIGRTQFDVKEVTYSSPKLPSAFDGYRIVQLSDIHIGSWQGNASAIQKLVKLVNEQQADLIVFTGDLVNHRAVELNDFQDILAGLKAKDGVYSILGNHDYGPYFHWKSKDEQDDNLNDLLQRQAAMGWKLLNNSHTILIQGSDSIALIGVENEGEPPFSQYADLPEAMRGTEGMFQILLSHNPTHWRREVLPQTYIDLMLAGHTHAMQLKFGNHSPSSYIYPEWSGMYLEGTRGLYVNEGIGYVGLPFRFGAWPEITVLTLRQ,failed
4,MLRHILTAKNLLSNPIFKFPNCLPFLSTVCCICRQFVGENLCSFADSPSLFEMWFHFLQLRSALNISSALRQVVHGTRWHAKRKSYKVLFWREITPLAVPIFMENACVLLMGVLSTFLVSWLGKDAMAGVGLADSFNMVIMAFFAAIDLGTTVVVAFSLGKRDRRRARVATRQSLVIMTLFAVLLATLIHHFGEQIIDFVAGDATTEVKALALTYLELTVLSYPAAAITLIGSGALRGAGNTKIPLLINGSLNILNIIISGILIYGLFSWPGLGFVGAGLGLTISRYIGAVAILWVLAIGFNPALRISLKSYFKPLNFSIIWEVMGIGIPASVESVLFTSGRLLTQMFVAGMGTSVIAGNFIAFSIAALINLPGSALGSASTIITGRRLGVGQIAQAEIQLRHVFWLSTLGLTAIAWLTAPFAGVMASFYTQDPQVKHVVVILIWLNALFMPIWSASWVLPAGFKGARDARYAMWVSMLSMWGCRVVVGYVLGIMLGWGVVGVWMGMFADWAVRAVLFYWRMVTGRWLWKYPRPEPQKCEKKPVVSE,failed
5,MLRLARKGLQTAVVRSYAKDVKFGAEGRQAMLVGVNLLADAVSVTMGPKGRNVIIEQSWGSPKITKDGVTVAKSIDLKDKYQNLGAKLIQDVANKANEEAGDGTTCATVLARAIAKEGFESIRQGGNAVEIRRGVMNAVEVVVAELKKISKKVTTPEEIAQVATISANGDTVVGNLISDAMKKVGTTGVITVKDGKTLNDELELIEGMKFDRGYISPYFITSAKGAKVEYEKALVLLSEKKISQVQDIVPALELANKLRRPLVIIAEDVDGEALTTLVLNRLKVGLQVVAIKAPGFGDNRKNTLKDMGIATGATIFGDDSNLIKIEDITANDLGEVDEVTITKDDTLLLRGRGDQTEIEKRIEHITDEIEQSTSDYEKEKLNERLAKLSKGVAVLKIGGGSEVEVGEKKDRVTDALCATRAAVEEGIVPGGGVALLRSLTALKNYKAANEDQQIGVNIVKKALTQPIATIVKNAGLEPSSIIDEVTGNSNTSYGYDALNGKFVDMFEAGIIDPTKVVRTALQDASGVASLLATTECVVTEIPKEEAVGGPAGGMGGMGGMGGMGGMGF,not failed
6,MLRNTSHSYGGIARALHWLCALAVIAALVFIELKGNFPKGDPLRSGLGYAHVQAGLIVLLLVLPRLAWRLGNPPPAIEPAPSPAMNLLAHAGHWALYALMLALPILGIAFIQANGREVALFGLALPAFMPNDPPLGKELKEIHELLGNVLLWLSILHAAAAVWHHRFLKDDTLTRLTGPMR,failed

# Reference: a protein production outcome set (Wang et al. 2014)
